US20150284467A1 (MAX DELBR CK CENTRUM F R MOLEKULARE MEDIZIN, published 2015)

Experiments:
[1] = molecular target: T1, extracellular domain of human CD269 (BCMA, TNFRSF17), purified (human, UniProt Q02223 4-54); assay: SPR, value printed beside the trace for 30.0 nM BCMA; neither quantity nor unit is printed on the sheet: the five printed values average 5.40E-11, which is the mean Kd of 54 pM in paragraph 181
T1 construct: also called BCMA extracellular domain
T1 sequence: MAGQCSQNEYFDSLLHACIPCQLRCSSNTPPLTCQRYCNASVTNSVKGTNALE

[2] = molecular target: T1, extracellular domain of human CD269 …; assay: SPR, value printed beside the trace for 90.0 nM BCMA; neither quantity nor unit is printed on the sheet: the five printed values average 5.40E-11, which is the mean Kd of 54 pM in paragraph 181
[3] = molecular target: T1, extracellular domain of human CD269 …; assay: SPR, value printed beside the trace for 3.3 nM BCMA; neither quantity nor unit is printed on the sheet: the five printed values average 5.40E-11, which is the mean Kd of 54 pM in paragraph 181
[4] = molecular target: T1, extracellular domain of human CD269 …; assay: SPR, value printed beside the trace for 1.1 nM BCMA; neither quantity nor unit is printed on the sheet: the five printed values average 5.40E-11, which is the mean Kd of 54 pM in paragraph 181
[5] = molecular target: T1, extracellular domain of human CD269 …; assay: surface plasmon resonance with several concentrations of BCMA (FIG. 1c)
[6] = molecular target: T1, extracellular domain of human CD269 …; assay: SPR, value printed beside the trace for 10.0 nM BCMA; neither quantity nor unit is printed on the sheet: the five printed values average 5.40E-11, which is the mean Kd of 54 pM in paragraph 181

B1: J22.9-xi chimeric antibody (mouse VH/VL of hybridoma J22.9 on human IgG1 and kappa constant domains) (antibody, V domains shown)
VH: QVQLQQSGGGLVQPGGSLKLSCAASGIDFSRYWMSWVRRAPGKGLEWIGEINPDSSTINYAPSLKDKFIISRDNAKNTLYLQMSKVRSEDTALYYCASLYYDYGDAMDYWGQGTSVTVSS
VL: DIVMTQSQRFMTTSVGDRVSVTCKASQSVDSNVAWYQQKPRQSPKALIFSASLRFSGVPARFTGSGSGTDFTLTISNLQSEDLAEYFCQQYNNYPLTFGAGTKLELKR
modifications: N-linked oligosaccharide chain at Asn297
notes: Full length IgG made in 293-6E cells; the constant domains are marked 'Used in J22.9-xi'
[1]
  Kd: 69.5 pM
[2]
  Kd: 88 pM
[3]
  Kd: 36.2 pM
[4]
  Kd: 21 pM
[5]
  Kd: 54 pM
[6]
  Kd: 55.5 pM
